Data from the supplement of paper PMC10567573.

B1: USP39 (parent)
chain: TLSEAYIQIWKRRDNDETNQQGA
B2: EDARADD (parent)
chain: VEKVLRRWVDEEWPKRERGDPSRH

Variants of: B1
Assay: protein stability index of a GFP-peptide fusion (GPS, HEK-293T) (PSI 1-6); higher = more stable
Conditions: c terminus: native
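Also: lentivirally expressed fusions sorted by FACS into six bins by GFP to DsRed ratio, PSI derived from sequencing read proportions per bin multiplied by bin number.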

Protein stability index of substitutions, site by site:
T1: Q 2.32; P 2.54; F 2.16; E 2.59; S 2.54; C 2.34; I 2.31; N 2.99; V 2.07; M 2.66; A 2.37; G 3.34; R 2.79; D 2.35; Y 1.78; H 1.99; K 2.36
A5: K 2.2; H 2.39; Y 2.57; C 3.14; W 2.18; R 3.47; Q 2.69; F 1.78; N 2.6; S 2.31; D 3.45; M 2.19; T 2.38; I 2.02; L 2.29; G 2.86; P 3.69; E 2.75; V 2.93
R12: Q 2.87; C 2; E 2.65; M 2.1; N 3.13; L 1.98; P 2.07; I 3.09; A 2.15; T 2.65; D 3.2; W 1.18; G 3.15; V 1.86; S 2.53; K 2.89; H 1.96; F 2.61; Y 1.81
E4: V 2.12; I 1.96; D 2.56; L 2.49; M 2.09; A 2.46; W 1.73; K 2.4; F 2.09; S 1.76; H 2.28; Y 2.04; C 1.73; N 2.05; G 2.23; Q 2.32; T 2.74; P 3.17; R 2.97
W10: D 3.97; N 2.85; S 3.19; Y 2.53; G 3.27; C 2.45; M 2.5; F 2.78; P 3.41; E 3.69; I 2.72; K 3.23; A 3.39; R 3.49; H 2.9; V 3.58; T 2.92; Q 3.46; L 2.96
D14: P 2.37; I 2.6; R 2.74; M 2.01; Q 2.12; L 1.94; G 2.06; E 2.07; C 2.08; N 1.71; A 2.1; H 2.19; K 2.67; F 2
I9: Q 3.23; D 2.84; K 3.13; F 2.03; W 1.73; M 2.5; R 3.3; A 2.66; N 3.46; P 3.42; E 3.11; L 2.21; G 2.54; V 2.67; T 2.7; Y 3.19; S 2.8; H 2.68; C 2.12
Y6: P 2.61; F 2.9; S 2.89; K 3.02; E 2.32; A 3.45; D 3.66; C 2.98; N 1.9; M 2.26; H 3.07; I 2.88; Q 3.57; R 3.02; L 2.2; V 3.28; T 3.32; G 3.19
R13: S 2.07; Q 4.3; V 1.97; N 2.37; G 1.93; L 1.84; T 2.36; I 2.52; P 2.46; K 2.05; F 1.48; E 2.63; D 3.22; C 2.06; H 2.43; Y 1.56; M 2.14
Q8: M 1.59; H 2.24; E 3; F 2; D 2.48; T 1.98; A 2.92; S 2.48; V 1.78; R 3.93; C 1.95; N 2.63; K 3.05; G 2.22; P 1.9; Y 2.07; L 1.42; I 1.5
I7: Q 3.2; D 3.29; V 2.72; R 2.68; N 2.82; T 2.53; K 3.71; L 2.44; E 3.69; G 2.56; P 3.23; A 2.93; Y 2.18; H 3.07; S 3.32; W 3.49; C 2.41; F 2.27
K11: Y 1.44; F 2.04; R 1.86; N 2.41; I 2.21; Q 1.78; A 1.74; H 1.88; P 1.72; V 1.67; E 1.92; G 2.39; L 2.32; C 3.3; S 3.78; M 2.63; D 1.58; T 3.14
S3: D 3.55; T 2.65; V 1.11; G 2.32; C 2.38; A 3.23; F 2.14; P 3.01; R 2.78; Y 1.98; L 3.01; E 2.95; M 2.01; K 2.68; Q 2.38; I 2.3; W 2.32; N 2.2; H 2.5
L2: W 2.63; V 2.73; T 2.72; F 2.51; S 3.08; A 2.8; Y 2.12; K 2.74; G 3.77; P 2.6; E 3.08; D 3.46; I 2.77; C 2.32; Q 3.35; H 3.1; M 2.98; N 3.33; R 2.85

Variants of: B2
Assay: as above
Conditions: c terminus: a fixed tail appended

Protein stability index of substitutions, site by site:
D20: R 2.48; T 3.07; Y 2.63; V 2.71; S 2.68; W 2.61
H24: W 1.84; T 2.96; G 2.71; L 3.12; C 2.13; A 2.59; S 2.81; R 3.5; K 3.04; N 2.75; V 2.93; M 3.47; D 3.06; Y 2.41; P 2.37; Q 3.56; F 2.61; E 2.48; I 2.3
R23: P 3.56; D 3.05; Y 2.87; G 2.59; A 2.83; S 3.07; F 1.98; N 2.81; C 3; M 2.45; L 2.66; K 2.83; E 3.71; V 2.44; Q 2.96; H 3.38; T 2.58; I 3.32; W 1.88
P21: T 2.68; Y 2.34; R 2.4; M 2.39; I 2.36; D 3.57; S 3.25; V 2.19; Q 3.07; A 3.34; E 3.51; L 2.5; F 2.28; H 2.52; K 3.46; G 3.02; W 1.89; N 3.21; C 2.51
S22: P 2.6; H 2.55; R 3.51; C 2.2; W 1.84; E 3.63; Q 2.96; D 3.26; I 2.52; Y 2.52; N 2.78; M 2.17; A 2.48; V 2.66; K 2.46; G 2.31; T 2.93; F 1.83
